Experiments:
[1] = target: HA from A/New York/107/2003 (Influenza A virus A/New York/107/2003 …, UniProt B2LVD7, strain); assay: ELISA
[2] = target: trimeric recombinant HA from H1 A/California/04/2009 (Influenza A virus A/California/04/2009 …, UniProt C3W5S1); assay: BLI
[3] = target: monomeric HA head domain from H1 A/California/07/2009 (influenza A virus A/California/07/2009 …, UniProt C3W5X2); assay: BLI
IN/05 HA = IN/05 HA (Influenza A virus A/Indonesia/5/2005 …, UniProt C5MRF2, strain); assay: ELISA
[4] = target: head domain of VN/04 HA (A/Vietnam/1203/2004 H5N1), monomeric (Influenza A virus A/Vietnam/1203/2004 …, strain); assay: HDX-MS

Row | Binder | binding result [1] | binding result (IN/05 HA) | further results
1 | FluA-20 (antibody, V domains shown) VH: QVQLEESGPGLVKPSETLSLTCSVSGVSVTSDIYYWTWIRQPPGKGLEWIGYIFYNGDTNYNPSLKSRVTMSIDTSKNEFSLRLTSVTAADTAVYFCARGTEDLGYCSSGSCPNHWGQGTLVTVSS VL: DIVMTQSPSSLSASIGDRVTITCRPSQNIRSFLNWFQHKPGKAPKLLIYAASNLQSGVPSRFSGSGSGTEFTLTIRSLQPEDFATYYCQQSYNTPPTFGQGTKVEIK | no binding | – | –
2 | mAb 5J8 (antibody, V domains shown) VH: EVQLVESGPGLVKPSDILSLTCAVSGYSISSNYYWGWIRQPPGKGLEWIGSIYHSGSTYYKPSLESRLGISVDTSKNQFSLKLSFVSAADTAVYYCARHVRSGYPDTAYYFDKWGQGTLVTVSS VL: SYVLTQPPSVSVAPGETARISCGGNNIGTKVLHWYQQTPGQAPVLVVYDDSDRPSGIPERFSGSNSGNTATLTISRVEVGDEADYYCQVWDISTDQAVFGGGTKLTVL | – | – | binding result [2]: binds; binding result [3]: binds
3 | FluA-151 (antibody, V domains shown) VH: QELLVESGGGVVQPGRSLRLSCVGSGFTFRTYGMHWVRQAPGRRPEWVALISNDGSREYYADSVKGRFTISRDNSRNTLYLQMNSLTVADTAVYYCAKFIPDPNYGEFYFHHWGQGTLVTVSS VL: DIQMTQSPSSLSASVEDRVTITCRASQSINKYLNWYQQKPGKAPKLLIYAADNLQDAVPSRFSGSGSGTDFTLTITGLHPDDLATYYCQQSYTIPPTFGHGTKVEIK | no binding | – | –
4 | mAb H5.28, hybridoma-generated IgG (antibody, V domains shown) VH: EVQLVESGGGLVQPGGSLRLSCAASGFTFSTYWMTWVRQAPGKGLEWVANINQDGGEKYFVDSVKGRFTISRDNAKNSLFLQMNTLRAEDTAVYYCARGFLERLLLGRQGAYYYGMDVWGQGTTVTVSS VL: DIQMTQSPSSLSASVGDRVSMTCRASQIISSSLNWYQQKPGKAPKLLIYAASNLQSGVPSRFSGSGSGTDFTLTISSLQPEDFATYYCQQSYSTPPELTFGGGTKVEIK | – | binds | –
5 | H5.28 Fab (recombinant) (Fab, V domains shown) VH: EVQLVESGGGLVQPGGSLRLSCAASGFTFSTYWMTWVRQAPGKGLEWVANINQDGGEKYFVDSVKGRFTISRDNAKNSLFLQMNTLRAEDTAVYYCARGFLERLLLGRQGAYYYGMDVWGQGTTVTVSS VL: DIQMTQSPSSLSASVGDRVSMTCRASQIISSSLNWYQQKPGKAPKLLIYAASNLQSGVPSRFSGSGSGTDFTLTISSLQPEDFATYYCQQSYSTPPELTFGGGTKVEIK | – | – | binding result [4]: binds
6 | mAb H5.31, hybridoma-generated IgG (antibody, V domains shown) VH: EVQLVQSGGGLVQPGGSLRLSCEASRFTSSSYWITWVRQAPGKGLEWVANIKQDGSEKYFVDSVKGRFTISRDNASNSLYLQMSSLRAEDTAVYYCARGFLERLLLGRQGAYYYGMDVWGQGTTVTVSS VL: DIVMTQSPFSLSASVGDRVTMTCRASQSISSSLNWYQQKPGKAPKLLIYAASNLQSGVPSRFSGSGSGTDFTLTISSLQPEDFATYYCQQSYTMPPELTFGGGTKVEIK | – | binds | –
